Data from the supplement of paper PMC12042874.
± gives the uncertainty stated by the source.

Test: amyloid nucleation score (Sup35N fusion, yeast selection) (log enrichment); library NNK3; higher = more nucleation; inactive = no reads after selection
Method in brief: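 Peptides of 20 random codons fused to Sup35N were expressed in psi-negative yeast, induced 24 hours with 100 μM copper sulfate, then grown 7 days at 30°C on medium lacking adenine and uracil. Input and output plasmid inserts were Illumina-sequenced. Nucleation score is the DiMSum log enrichment of output over input reads, centred on the mode score of non-aggregating sequences, excluding sequences with under 100 input reads. Random libraries had three technical output replicates.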
For YRSEGSWHDDSQSKKWWSGV, the amyloid nucleation score was “inactive”. With YRTIVVLSNFFNILSFSKNQ the amyloid nucleation score was 0.718 ± 0.15. For YRYFGTAAMKRICHRNSIVS, the amyloid nucleation score was “inactive”. In the case of YSACSSGVPRCLDMSRATVE, the amyloid nucleation score is reported as -0.055 ± 1.1. In the case of YSCLRLYATNHVTLWICELK, the amyloid nucleation score is reported as “inactive”. In the case of YSDIVFILDLGYCAF, the amyloid nucleation score is reported as 1.3 ± 0.091. In the case of YSDTFADNYLNCMHQVKCVN, the amyloid nucleation score is reported as “inactive”. For YSFSRY, the amyloid nucleation score was “inactive”. For YSGGCGWIMSRNSVRYSCIC, the amyloid nucleation score was “inactive”. For YSGGLWWYWPSECNNAKYVL, the amyloid nucleation score was “inactive”. Substance YSIIVVL has an amyloid nucleation score of 1.39 ± 0.087. In the case of YSIMFRVLVGT, the amyloid nucleation score is reported as “inactive”. Substance YSKCNRIFFTEDLF has an amyloid nucleation score of -0.295 ± 0.8. In the case of YSKRSLDYI, the amyloid nucleation score is reported as “inactive”. In the case of YSLSINCMFRYRSFSDFIDN, the amyloid nucleation score is reported as 0.992 ± 0.2. In the case of YSMFN, the amyloid nucleation score is reported as “inactive”. In the case of YSNSELSGECRLLHKITSD, the amyloid nucleation score is reported as “inactive”. With YSNWKLRRRCYLRDNIFWVI the amyloid nucleation score was “inactive”. With YSPAK the amyloid nucleation score was “inactive”. For YSRPMVTL, the amyloid nucleation score was “inactive”. In the case of YSRSQTMSTACNVVYVFSGQ, the amyloid nucleation score is reported as “inactive”. For YSSECALWNCRACVLYIHYR, the amyloid nucleation score was 1.27 ± 0.16. In the case of YSSHVPSLHQLDQVSRRVQG, the amyloid nucleation score is reported as “inactive”. For YSSVILVY, the amyloid nucleation score was 0.156 ± 0.48. In the case of YSTPTDMLDLQFDKSASRGV, the amyloid nucleation score is reported as “inactive”. YSVIMPCSNLNWVDMNLTEY gave an amyloid nucleation score of -0.169 ± 0.29. In the case of YSWYEDPWWGERFWP, the amyloid nucleation score is reported as “inactive”. YSYTILHNFNKCSVKTLIFF showed an amyloid nucleation score of 2.38 ± 0.058. Substance YTAKYGGFISLYR has an amyloid nucleation score of 0.691 ± 0.15. With YTCNST the amyloid nucleation score was “inactive”. Work on YTFIIGIKHSTSSFNMSFSM yielded an amyloid nucleation score of 0.613 ± 0.25. With YTFLSVAFLD the amyloid nucleation score was “inactive”. With YTFRCIYRADYNTP the amyloid nucleation score was “inactive”. For YTFRMYGLMDNLHCAPWF, the amyloid nucleation score was “inactive”. For YTLAFECLPSLTMQVRNWMM, the amyloid nucleation score was “inactive”. With YTLKCIQVVWLSMPVSVSNV the amyloid nucleation score was “inactive”. Work on YTMLSVCGVYICYKVYSMCW yielded an amyloid nucleation score of 0.527 ± 0.4. In the case of YTQFYSMILDRRFCFNSVEL, the amyloid nucleation score is reported as “inactive”. In the case of YTRCNISNMV, the amyloid nucleation score is reported as “inactive”. With YTVMFLGANYSYVVKSMSRS the amyloid nucleation score was “inactive”. With YVCGLRRKSLVGKLYSIGLS the amyloid nucleation score was “inactive”. YVDMP gave an amyloid nucleation score of 0.089 ± 0.87. Substance YVFGNWLLCFEHTKMH has an amyloid nucleation score of 1.1 ± 0.14. With YVFVCIRPPLVGVHEFNSRS the amyloid nucleation score was -0.089 ± 0.56. For YVHWLGSALREGDWVLPSAL, the amyloid nucleation score was “inactive”. For YVIGDVIIFPSSFMINCLYC, the amyloid nucleation score was 2.4 ± 0.081. With YVILGQDDHEKT the amyloid nucleation score was “inactive”. In the case of YVSSRNRHYGSPYLGVCVFK, the amyloid nucleation score is reported as “inactive”. With YVTGVLDC the amyloid nucleation score was “inactive”. For YVTHMQLGYLSVMCMEVKRG, the amyloid nucleation score was 1.35 ± 0.085. With YVVRN the amyloid nucleation score was “inactive”. For YVVVLMSLHWRNWGALRRTC, the amyloid nucleation score was “inactive”. With YVYWREFGACMGSQQWVVRV the amyloid nucleation score was “inactive”. In the case of YWDVNQGVYGINYGTVSHS, the amyloid nucleation score is reported as 0.256 ± 0.43. For YWFIAQAYKGRCVGSTVDKR, the amyloid nucleation score was “inactive”. With YWFSQFVIFGCSS the amyloid nucleation score was “inactive”. With YWGIDHRIAGYIC the amyloid nucleation score was “inactive”. With YWLSPDKICTYYLVWVRRAP the amyloid nucleation score was “inactive”. For YWQPWVNLDSYRCGHNSQFP, the amyloid nucleation score was “inactive”. In the case of YWSIFTLVVPMRFAFIWS, the amyloid nucleation score is reported as “inactive”. Substance YWSNSYGIECCRLVQQAPTE has an amyloid nucleation score of -0.132 ± 0.33.
